From patent US20190263918A1 (SHANGHAI JIAO TONG UNIVERSITY SCHOOL OF MEDICINE, published 2019)

T1: recombinant murine CD40 protein (murine, UniProt P27512 24-193, limits assumed)
T1 construct: Bought; coated on the ELISA plate; also called mouse CD40; mCD40
T1 sequence (looked up): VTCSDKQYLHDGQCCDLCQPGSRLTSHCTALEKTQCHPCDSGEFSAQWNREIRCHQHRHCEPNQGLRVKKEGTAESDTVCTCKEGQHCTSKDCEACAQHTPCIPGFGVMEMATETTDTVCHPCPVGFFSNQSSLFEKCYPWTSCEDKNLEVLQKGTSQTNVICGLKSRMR

T2: murine DR5 on MC38 cells (murine, UniProt Q9QZM4 53-381)
T2 construct: whole, on cells; also called mDR5
T2 sequence (looked up): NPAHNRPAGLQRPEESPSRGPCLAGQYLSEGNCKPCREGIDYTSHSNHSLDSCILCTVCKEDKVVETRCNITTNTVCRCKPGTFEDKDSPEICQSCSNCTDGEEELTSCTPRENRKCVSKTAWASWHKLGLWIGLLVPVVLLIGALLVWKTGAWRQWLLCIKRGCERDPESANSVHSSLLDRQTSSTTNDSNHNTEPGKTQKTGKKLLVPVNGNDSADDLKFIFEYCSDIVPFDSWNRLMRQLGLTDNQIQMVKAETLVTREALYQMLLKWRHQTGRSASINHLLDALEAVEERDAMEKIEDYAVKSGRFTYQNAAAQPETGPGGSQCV

T3: human FcγRIIB extracellular domain protein (human, UniProt P31994 43-217)
T3 construct: extracellular domain; SPR: His-tagged, immobilised; ELISA: biotinylated; also called hFcγRIIB; CD32b
T3 sequence (looked up): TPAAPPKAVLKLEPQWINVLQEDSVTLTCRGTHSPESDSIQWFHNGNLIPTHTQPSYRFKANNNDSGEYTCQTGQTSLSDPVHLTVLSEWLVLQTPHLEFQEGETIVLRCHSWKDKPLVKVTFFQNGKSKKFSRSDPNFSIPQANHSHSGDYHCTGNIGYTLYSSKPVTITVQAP

B1: Anti-hCD40-hIgG1 (antibody)
heavy: not shown
light: DIQMTQSPSSVSASVGDRVTITCRASQGIYSWLAWYQQKPGKAPNLLIYTASTLQSGVPSRFSGSGSGTDFTLTISSLQPEDFATYYCQQANIFPLTFGGGTKVEIKRTVAAPSVFIFPPSDEQLKSGTASVVCLLNNFYPREAKVQWKVDNALQSGNSQESVTEQDSKDSTYSLSSTLTLSKADYEKHKVYACEVTHQGLSSPVTKSFNRGEC
notes: Human anti-human CD40 antibody with the light chain and VH of CP-870893; heavy chain constant region G1
B2: Anti-hCD40-hIgG3 (antibody)
heavy: not shown
light: B1 light
notes: Human anti-human CD40 antibody, heavy chain constant region G3
B3: Anti-mCD40-hIgG1 (antibody)
heavy: not shown
light: DTVLTQSPALAVSPGERVTISCRASDSVSTLMHWYQQKPGQQPKLLIYLASHLESGVPARFSGSGSGTDFTLTIDPVEADDTATYYCQQSWNDPWTFGGGTKLELKRTVAAPSVFIFPPSDEQLKSGTASVVCLLNNFYPREAKVQWKVDNALQSGNSQESVTEQDSKDSTYSLSSTLTLSKADYEKHKVYACEVTHQGLSSPVTKSFNRGEC
notes: Chimeric anti-murine CD40 antibody, heavy chain constant region G1
B4: Anti-mCD40-hIgG1(V11) (antibody)
heavy: EVQLVESDGGLVQPGRSLKLPCAASGFTFSDYYMAWVRQAPTKGLEWVASISYDGSSTYYRDSVKGRFTISRDNAKSTLYLQMDSLRSEDTATYYCGRHSSYFDYWGQGVMVTVSSATTKGPSVFPLAPSSKSTSGGTAALGCLVKDYFPEPVTVSWNSGALTSGVHTFPAVLQSSGLYSLSSVVTVPSSSLGTQTYICNVNHKPSNTKVDKRVEPKSCDKTHTCPPCPAPELLGDDSVFLFPPKPKDTLMISRTPEVTCVVVDVSDEDGEVKFNWYVDGVEVHNAKTKPREEQYNSTYRVVSVLTVLHQDWLNGKEYKCKVSNKALPRPIEKTISKAKGQPREPQVYTLPPSRDELTKNQVSLTCLVKGFYPSDIAVEWESNGQPENNYKTTPPVLDSDGSFFLYSKLTVDKSRWQQGNVFSCSVMHEALHNHYTQKSLSLSPGK
light: B3 light
notes: Chimeric anti-murine CD40 antibody, heavy chain constant region V11(H1)
B5: Anti-hCD40-hIgG2-NA (antibody)
heavy: not shown
light: B1 light
notes: Human anti-human CD40 antibody, heavy chain constant region G2-NA (N297A)
B6: Anti-mCD40-hIgG2(V11) (antibody)
heavy: EVQLVESDGGLVQPGRSLKLPCAASGFTFSDYYMAWVRQAPTKGLEWVASISYDGSSTYYRDSVKGRFTISRDNAKSTLYLQMDSLRSEDTATYYCGRHSSYFDYWGQGVMVTVSSASTKGPSVFPLAPCSRSTSESTAALGCLVKDYFPEPVTVSWNSGALTSGVHTFPAVLQSSGLYSLSSVVTVPSSNFGTQTYTCNVDHKPSNTKVDKTVERKCCVECPPCPAPELLGDDSVFLFPPKPKDTLMISRTPEVTCVVVDVSDEDGEVKFNWYVDGVEVHNAKTKPREEQYNSTYRVVSVLTVLHQDWLNGKEYKCKVSNKALPRPIEKTISKAKGQPREPQVYTLPPSRDELTKNQVSLTCLVKGFYPSDIAVEWESNGQPENNYKTTPPVLDSDGSFFLYSKLTVDKSRWQQGNVFSCSVMHEALHNHYTQKSLSLSPGK
light: B3 light
notes: Chimeric anti-murine CD40 antibody, heavy chain constant region V11(H2), i.e. JAC1; also called anti-murine CD40 antibody comprising JAC1
B7: Anti-mDR5-hIgG1-GASDALIE (antibody)
heavy: QIQLQESGPGLVKPAQSLSLTCSITGFPITAGGYWWTWIRQFPGQKLEWMGYIYSSGSTNYNPSIKSRISITRDTAKNQFFLQLNSVTTEEDTAIYYCARAGTSYSGFFDSWGQGTLVTVSSATTKGPSVFPLAPSSKSTSGGTAALGCLVKDYFPEPVTVSWNSGALTSGVHTFPAVLQSSGLYSLSSVVTVPSSSLGTQTYICNVNHKPSNTKVDKRVEPKSCDKTHTCPPCPAPELLAGPDVFLFPPKPKDTLMISRTPEVTCVVVDVSHEDPEVKFNWYVDGVEVHNAKTKPREEQYNSTYRVVSVLTVLHQDWLNGKEYKCKVSNKALPLPEEKTISKAKGQPREPQVYTLPPSRDELTKNQVSLTCLVKGFYPSDIAVEWESNGQPENNYKTTPPVLDSDGSFFLYSKLTVDKSRWQQGNVFSCSVMHEALHNHYTQKSLSLSPGK
light: DIQVTQSPSLLSASFGDKVTINCLVTQDITYYLSWYQQKSGQPPTLLIYNGNSLQSGVPSRFSGQYSGRTFTLSLSSLEPEDAGTYYCLQHYSVPFTFGGGTRLEIKRTVAAPSVFIFPPSDEQLKSGTASVVCLLNNFYPREAKVQWKVDNALQSGNSQESVTEQDSKDSTYSLSSTLTLSKADYEKHKVYACEVTHQGLSSPVTKSFNRGEC
B8: Anti-mDR5-IgG2(V11) (antibody)
heavy: QIQLQESGPGLVKPAQSLSLTCSITGFPITAGGYWWTWIRQFPGQKLEWMGYIYSSGSTNYNPSIKSRISITRDTAKNQFFLQLNSVTTEEDTAIYYCARAGTSYSGFFDSWGQGTLVTVSSASTKGPSVFPLAPCSRSTSESTAALGCLVKDYFPEPVTVSWNSGALTSGVHTFPAVLQSSGLYSLSSVVTVPSSNFGTQTYTCNVDHKPSNTKVDKTVERKCCVECPPCPAPELLGDDSVFLFPPKPKDTLMISRTPEVTCVVVDVSDEDGEVKFNWYVDGVEVHNAKTKPREEQYNSTYRVVSVLTVLHQDWLNGKEYKCKVSNKALPRPIEKTISKAKGQPREPQVYTLPPSRDELTKNQVSLTCLVKGFYPSDIAVEWESNGQPENNYKTTPPVLDSDGSFFLYSKLTVDKSRWQQGNVFSCSVMHEALHNHYTQKSLSLSPGK
light: B7 light
notes: Chimeric anti-murine DR5 antibody, heavy chain constant region V11(H2), i.e. JAC1
B9: Fc fragment of heavy chain constant region G1-GASDALIE (hIgG1 G236A/S239D/A330L/I332E) (other)
chain: PELLAGPDVFLFPPKPKDTLMISRTPEVTCVVVDVSHEDPEVKFNWYVDGVEVHNAKTKPREEQYNSTYRVVSVLTVLHQDWLNGKEYKCKVSNKALPLPEEKTISKAKGQPREPQVYTLPPSRDELTKNQVSLTCLVKGFYPSDIAVEWESNGQPENNYKTTPPVLDSDGSFFLYSKLTVDKSRWQQGNVFSCSVMHEALHNHYTQKSLSLSPGK
B10: human FcγRIIA-R131 extracellular domain protein (receptor, UniProt P12318 34-217, looked up)
chain: QAAAPPKAVLKLEPPWINVLQEDSVTLTCQGARSPESDSIQWFHNGNLIPTHTQPSYRFKANNNDSGEYTCQTGQTSLSDPVHLTVLSEWLVLQTPHLEFQEGETIMLRCHSWKDKPLVKVTFFQNGKSQKFSRLDPTFSIPQANHSHSGDYHCTGNIGYTLFSSKPVTITVQVPSMGSSSPMG
notes: extracellular domain; SPR: His-tagged, immobilised; ELISA: biotinylated; also called hFcγRIIA-R131; CD32a

Key:
[1] = molecular target: T4, recombinant human CD40 protein (human, UniProt P25942 21-193); test: ELISA: plate coated with recombinant human CD40, antibody in gradient dilutions, biotinylated anti-human Igκ light chain secondary antibody, SAV-HRP, A650
T4 construct: Bought; coated on the ELISA plate; also called hCD40
Experimental: (§1) For assay on anti-human CD40 antibodies, an ELISA plate was coated with recombinant human CD40 protein (Novoprotein Scientific Inc.) overnight at atmospheric temperature, blocked using 1% BSA at room temperature for 2 h, and then washed three times with PBST (0.05% Tween 20 in PBS). To each well was added […] gradient dilutions of the human agonistic CD40 antibody. The plate was incubated at room temperature for 1 h and washed four times with PBST. Then, 100 ng/ml biotinylated secondary antibody against human Igκ light chain was added, incubated at room temperature for 1 h and washed 4 times with PBST. SAV-HRP at an appropriate concentration was added, incubated at room temperature for 1 h. Then, chromogenic substrate was added to react for 5 minutes, and optical absorbance was determined at 650 nm.

[2] = molecular target: B10; test: ELISA: plate coated with the anti-human CD40 antibody, biotinylated human FcγRIIA-R131 extracellular domain, streptavidin-HRP, A650 [FcγRIIA-R131 panels]
Experimental: The ELISA plate was coated with 100 μL antibody at an appropriate concentration overnight, supernatant being discarded. The plate was blocked with 1% BSA in PBS for 2 hours, followed by washing with PBST (PBS with 0.05% Tween 20). Then, biotinylated FcγR extracellular domain protein (Sino Biologic Inc., Beijing China) at a concentration as appropriate was added and incubated at room temperature for 1 hour, supernatant being discarded, followed by PBST wash. Streptavidin-HRP (BD Biosciences) was added and incubated at room temperature for 1 hour for detection of biotin protein. After removal of supernatant, developing solution was added to react for 20-40 minutes, and absorbance was determined at 650 nm (A650).

[3] = molecular target: T1, recombinant murine CD40 protein; test: ELISA: plate coated with recombinant murine CD40, antibody in gradient dilutions, HRP-labelled goat anti-human IgG-Fc secondary antibody, A650
Experimental: as §1
For assay on anti-murine CD40 antibodies, the process was the same, expect that the plate was coated with recombinant murine CD40 protein (Novoprotein Scientific Inc.) and HRP-labeled goat anti-human IgG-Fc antibody was used as the secondary antibody.

murine DR5 on MC38 cells = molecular target: T2, murine DR5 on MC38 cells; test: flow cytometry on MC38 cells, FITC goat anti-human antibody
Experimental: To detect the DR5 binding capacity of different anti-DR5 antibodies, MC38 cells were resuspended in ice-cold FACS buffer (PBS+0.5% FBS+2 mM EDTA+0.1% NaN3), to which 3.16-fold gradient dilutions of control and anti-DR5 antibody at concentrations ranging from 2 ng to 20 µg/mL were added, and the reaction was incubated at room temperature for 15 minutes. The system was washed twice with ice-cold FACS buffer, then flow-cytometry stained using FITC-labeled goat anti-human antibody (VECTOR FI-3080) on ice for 25 minutes in dark, which was then washed twice with FACS buffer and analyzed by flow-cytometry. For the antibodies, the DR5 binding capacity was positively correlated to FITC mean fluorescence intensity (MFI).

[4] = molecular target: T3, human FcγRIIB extracellular domain …; test: SPR, Biacore T100, FcγR extracellular domain immobilised, 1:1 model
[5] = molecular target: B10; test: as above
[6] = molecular target: Fc fragment of heavy chain constant region G1 (hIgG1) (human, UniProt P0DOX5 234-449 = IgG part); test: as above

T4 sequence (P25942 21-193 limits assumed): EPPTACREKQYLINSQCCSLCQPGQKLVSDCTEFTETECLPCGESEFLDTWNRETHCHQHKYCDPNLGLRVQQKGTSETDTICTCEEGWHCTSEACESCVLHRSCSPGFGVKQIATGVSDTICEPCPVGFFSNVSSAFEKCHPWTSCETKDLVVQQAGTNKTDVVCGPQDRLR

B1
EC50 (read off the curve) [1]: ~0.2 µg/mL | binding result [2]: binds

B2
EC50 (read off the curve) [1]: ~0.1 µg/mL

B3
EC50 (read off the curve) [3]: ~0.1 µg/mL

B4
EC50 (read off the curve) [3]: ~0.1 µg/mL

B5
binding result [2]: no binding

B6
EC50 (read off the curve) [3]: ~0.1 µg/mL

B7
binding result (murine DR5 on MC38 cells): binds

B8
binding result (murine DR5 on MC38 cells): binds

B9
Kd [4]: 740 nM | Kd [5]: 63 nM

B10
Kd [6]: 1200 nM
